Measured values from paper PMC9279676, “ERK2 MAP kinase regulates SUFU binding by multisite phosphorylation of GLI1” (Life Science Alliance, 2022).
Several values for one entry are separate records, joined by “and”; a condition that tells them apart may be missing. Equal entries are not always repeated.

T1: full-length human SUFU protein, 35S-radiolabeled (human, UniProt Q9UMX1-1 1-484, [35S]-methionine label)
T1 construct: human SUFU, full length, residues 1-484, from plasmid pGEM4Z-SUFU; also called 35S-SUFU; radiolabeled SUFU; source: in vitro transcription and translation (SP6, Promega), partially purified by ammonium sulfate precipitation
T1 sequence (looked up): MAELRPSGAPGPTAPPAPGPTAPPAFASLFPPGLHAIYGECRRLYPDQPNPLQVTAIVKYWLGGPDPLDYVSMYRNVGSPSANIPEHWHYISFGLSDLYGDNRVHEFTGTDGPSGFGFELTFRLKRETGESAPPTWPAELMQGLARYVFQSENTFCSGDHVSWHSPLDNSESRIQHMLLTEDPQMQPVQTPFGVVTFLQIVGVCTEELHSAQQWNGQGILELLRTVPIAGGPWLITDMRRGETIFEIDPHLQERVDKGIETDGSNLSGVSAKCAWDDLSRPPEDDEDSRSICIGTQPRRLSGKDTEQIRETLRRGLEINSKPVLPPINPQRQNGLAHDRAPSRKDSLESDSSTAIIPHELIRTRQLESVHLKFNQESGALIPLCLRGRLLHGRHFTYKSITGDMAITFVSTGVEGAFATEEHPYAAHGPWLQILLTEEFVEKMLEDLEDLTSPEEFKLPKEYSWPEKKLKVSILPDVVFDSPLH


Biological target: T1, full-length human SUFU protein, …
Assay: pull-down; purified GST-GLI1_(68-232) variants (mock treated or ERK2 phosphorylated), 0 or 1.25-80 nM, on glutathione-Sepharose beads; ∼1 pmol 35S-SUFU in 200 μl; 15 min at 30°C, then 1 h at room temperature; Binding Buffer (20 mM Tris-HCl pH 7.5, 125 mM KOAc, 0.5 mM EDTA, 5 mM DTT, 0.1% Tween20, 12.5% glycerol) + 1 mg/ml BSA; bound SUFU quantified by SDS-PAGE and Phosphorimager; Kd from binding isotherms
Details: one partner purified

Binder	Kd
GST-GLI1^7A, treated with active ERK2 (domain or fragment, human, UniProt P08151-1 68-232, looked up, treated with ERK2; only minimally phosphorylated, also called 7A+ERK2; ERK2-treated GLI1^7A; source: bacteria, purified (glutathione-Sepharose); then treated with purified active ERK2) FSAPRSAVKLTKKRALSIAPLSDASLDLQTVIRTAPSSLVAFINSRCTAPGGSYGHLSIGTMAPSLGFPAQMNHQKGPAPSFGVQPCGPHDSARGGMIPHPQSRGPFPTCQLKSELDMLVGKCREEPLEGDMSAPNSTGIQDPLLGMLDGREDLEREEKREPESV	~23 nM
GST-GLI1^S102,S130, phosphorylated by ERK2 (domain or fragment, human, UniProt P08151-1 68-232, looked up, phosphorylated by ERK2; intact SP sites S102, S130, only the SP sites S102 and S130 intact; also called ERK2-treated GLI1^S102,S130; source: bacteria, purified (glutathione-Sepharose); then phosphorylated with purified active ERK2) FSAPRSAVKLTKKRALSIAPLSDASLDLQTVIRTSPSSLVAFINSRCTAPGGSYGHLSIGTMSPSLGFPAQMNHQKGPAPSFGVQPCGPHDSARGGMIPHPQSRGPFPTCQLKSELDMLVGKCREEPLEGDMSAPNSTGIQDPLLGMLDGREDLEREEKREPESV	25 ± 3 nM
GST-GLI1_(68-232), wild type, unphosphorylated (mock treated) (domain or fragment, human, UniProt P08151-1 68-232, looked up, vector pGEX-LB (Gly-Gly-Gly-Gly-Gly-Ser-Gly stretch between GST and the fused part); the plasmid is from Whisenant et al, 2010; also called wild-type GLI1; WT; source: bacteria, purified (glutathione-Sepharose); untreated or mock treated (no ERK2)) FSSPRSAVKLTKKRALSISPLSDASLDLQTVIRTSPSSLVAFINSRCTSPGGSYGHLSIGTMSPSLGFPAQMNHQKGPSPSFGVQPCGPHDSARGGMIPHPQSRGPFPTCQLKSELDMLVGKCREEPLEGDMSSPNSTGIQDPLLGMLDGREDLEREEKREPESV	~4 nM and 4 nM and 3 nM
GST-GLI1^AAA, treated with active ERK2 (domain or fragment, human, UniProt P08151-1 68-232, looked up, treated with ERK2; S70, S86, S146 and S201 remained intact as possible phosphosites, also called GLI1^AAA + ERK2; source: bacteria, purified (glutathione-Sepharose); then phosphorylated with purified active ERK2) FSSPRSAVKLTKKRALSISPLSDASLDLQTVIRTAPSSLVAFINSRCTAPGGSYGHLSIGTMAPSLGFPAQMNHQKGPSPSFGVQPCGPHDSARGGMIPHPQSRGPFPTCQLKSELDMLVGKCREEPLEGDMSSPNSTGIQDPLLGMLDGREDLEREEKREPESV	20 nM
GST-GLI1^AAA (GST-GLI1_(68-232) S102A S116A S130A), mock treated (domain or fragment, human, UniProt P08151-1 68-232, looked up, source: bacteria, purified (glutathione-Sepharose); mock treated (no ERK2)) FSSPRSAVKLTKKRALSISPLSDASLDLQTVIRTAPSSLVAFINSRCTAPGGSYGHLSIGTMAPSLGFPAQMNHQKGPSPSFGVQPCGPHDSARGGMIPHPQSRGPFPTCQLKSELDMLVGKCREEPLEGDMSSPNSTGIQDPLLGMLDGREDLEREEKREPESV	17 nM
GST-GLI1^S102,S116, phosphorylated by ERK2 (domain or fragment, human, UniProt P08151-1 68-232, looked up, phosphorylated by ERK2; intact SP sites S102, S116, only the SP sites S102 and S116 intact; also called ERK2-treated GLI1^S102,S116; source: bacteria, purified (glutathione-Sepharose); then phosphorylated with purified active ERK2) FSAPRSAVKLTKKRALSIAPLSDASLDLQTVIRTSPSSLVAFINSRCTSPGGSYGHLSIGTMAPSLGFPAQMNHQKGPAPSFGVQPCGPHDSARGGMIPHPQSRGPFPTCQLKSELDMLVGKCREEPLEGDMSAPNSTGIQDPLLGMLDGREDLEREEKREPESV	43 ± 8 nM
GST-GLI1^SSS (GST-GLI1_(68-232) S70A S86A S146A S201A), mock treated (domain or fragment, human, UniProt P08151-1 68-232, looked up, only S102, S116 and S130 left intact; source: bacteria, purified (glutathione-Sepharose); mock treated (no ERK2)) FSAPRSAVKLTKKRALSIAPLSDASLDLQTVIRTSPSSLVAFINSRCTSPGGSYGHLSIGTMSPSLGFPAQMNHQKGPAPSFGVQPCGPHDSARGGMIPHPQSRGPFPTCQLKSELDMLVGKCREEPLEGDMSAPNSTGIQDPLLGMLDGREDLEREEKREPESV	2.6 nM
GST-GLI1^SSS, phosphorylated by ERK2 (domain or fragment, human, UniProt P08151-1 68-232, looked up, phosphorylated by ERK2; intact SP sites S102, S116, S130, only S102, S116 and S130 left intact; also called ERK-phosphorylated GLI1^SSS; phosphorylated GLI1^SSS mutant; source: bacteria, purified (glutathione-Sepharose); then phosphorylated with purified active ERK2) FSAPRSAVKLTKKRALSIAPLSDASLDLQTVIRTSPSSLVAFINSRCTSPGGSYGHLSIGTMSPSLGFPAQMNHQKGPAPSFGVQPCGPHDSARGGMIPHPQSRGPFPTCQLKSELDMLVGKCREEPLEGDMSAPNSTGIQDPLLGMLDGREDLEREEKREPESV	127 nM
GST-GLI1^S102, phosphorylated by ERK2 (domain or fragment, human, UniProt P08151-1 68-232, looked up, phosphorylated by ERK2; only intact SP site S102, only the SP site S102 intact; also called ERK2-treated GLI1^S102; source: bacteria, purified (glutathione-Sepharose); then phosphorylated with purified active ERK2) FSAPRSAVKLTKKRALSIAPLSDASLDLQTVIRTSPSSLVAFINSRCTAPGGSYGHLSIGTMAPSLGFPAQMNHQKGPAPSFGVQPCGPHDSARGGMIPHPQSRGPFPTCQLKSELDMLVGKCREEPLEGDMSAPNSTGIQDPLLGMLDGREDLEREEKREPESV	14 ± 4 nM
GST-GLI1^7A (GST-GLI1_(68-232) with all seven SP serines changed to alanine), mock treated (domain or fragment, human, UniProt P08151-1 68-232, looked up, source: bacteria, purified (glutathione-Sepharose); mock treated (no ERK2)) FSAPRSAVKLTKKRALSIAPLSDASLDLQTVIRTAPSSLVAFINSRCTAPGGSYGHLSIGTMAPSLGFPAQMNHQKGPAPSFGVQPCGPHDSARGGMIPHPQSRGPFPTCQLKSELDMLVGKCREEPLEGDMSAPNSTGIQDPLLGMLDGREDLEREEKREPESV	~23 nM
